The target of this experiment is Fzd1 cysteine rich domain (CRD), C-terminally biotinylated (human, UniProt Q9UP38 101-230). The experiment can be described thus: BLI. On the procedure: Binding kinetics of antibody fragments to a variety of Fzd cysteine rich domain (CRD) protein targets (Fzd1, Fzd2, Fzd3, Fzd4, Fzd5, Fzd6, Fzd7, Fzd8, Fzd9 and/or Fzd10 CRDs) was determined by bio-layer interferometry (BLI) using Octet Red 96 (PALL ForteBio, Fremont, CA) instruments at 30° C., 1000 rpm with streptavidin (SA) biosensors. C-terminal biotinylated Fzd CRD recombinant protein was diluted to 20 nM in the running buffer (PBS, 0.05% Tween-20, 0.5% BSA, pH 7.2) and captured to the SA biosensor until coupling length reached 0.2 nm. Following capture of the Fzd CRD, the SA biosensor with captured biotinylated-Fzd CRD was dipped into wells containing the relevant antibody fragment at […] (0, 1.37, 4.12, 12.4, 37, 111.1, 333.3, 1000 nM) in running buffer, plus a well with only running buffer as a reference channel. […] was determined by global fitting, 1:1 binding model according to manufacturer recommended settings.
One antibody fragment, clone 001S-A04, was selected for alanine-scanning mutagenesis of CDRs, and the respective Fzd1 binding affinities of the various mutants were determined by Octet BLI as described in Example 1.
On the technique in general: BLI is a label-free optical method that tracks binding on a fibre tip over time.

B1: 001S-A04 mutant VHY8A (Fab, V domains shown)
VH: EVQLVQSGAEVKKPGASVKVSCKASGYTFTSYGISWVRQAPGQGLEWMGWISAYNGNTNYAQKLQGRVTMTTDTSTSTAYMELRSLRSDDTAVYYCASSKEKATYAYGMDVWGQGTTVTVSS
VL: QAVVLQEPSLSVSPGGTVTLTCGLSSGSVSTNYYPSWYQQTPGQAPRTLIYYTNTRSSDVPERFSGSIVGNKAALTITGAQPDDESVYFCLLYLGRGIWVFGGGTKLTVLG
For the molecule B1, the binding result is recorded as “no binding (tested: 1000 nM)”.

(Values after patent US12006368 (SURROZEN OPERATING, dated 2024).)
